According to PMC3467059 (Nucleic Acids Research, 2012):

Columns and labels:
[1] = biological target: PspF1–275 T86S (E. coli, UniProt P37344 1-275, T86S); assay: native gel or EMSA
[2] = biological target: PspF1–275 F85Y (E. coli, UniProt P37344 1-275, F85Y); assay: native gel or EMSA

LQQELQQ (peptide, UniProt P06223 33-39, looked up) [σ54RI peptide fragment, residues 33–39 (Patch 2)]
binding result [1]: binds | binding result [2]: binds

QLQQAIRL (peptide, UniProt P06223 18-25, looked up) [σ54RI peptide fragment, residues 18–25 (Patch 1)]
binding result [2]: binds
